Measurements published in patent US20030165897A1 (published 2003).

Target: T1, Patched (Ptc) (Drosophila, UniProt P18502 1-1286)
T1 construct: whole, on cells; Endogenous protein in vivo
T1 sequence (looked up): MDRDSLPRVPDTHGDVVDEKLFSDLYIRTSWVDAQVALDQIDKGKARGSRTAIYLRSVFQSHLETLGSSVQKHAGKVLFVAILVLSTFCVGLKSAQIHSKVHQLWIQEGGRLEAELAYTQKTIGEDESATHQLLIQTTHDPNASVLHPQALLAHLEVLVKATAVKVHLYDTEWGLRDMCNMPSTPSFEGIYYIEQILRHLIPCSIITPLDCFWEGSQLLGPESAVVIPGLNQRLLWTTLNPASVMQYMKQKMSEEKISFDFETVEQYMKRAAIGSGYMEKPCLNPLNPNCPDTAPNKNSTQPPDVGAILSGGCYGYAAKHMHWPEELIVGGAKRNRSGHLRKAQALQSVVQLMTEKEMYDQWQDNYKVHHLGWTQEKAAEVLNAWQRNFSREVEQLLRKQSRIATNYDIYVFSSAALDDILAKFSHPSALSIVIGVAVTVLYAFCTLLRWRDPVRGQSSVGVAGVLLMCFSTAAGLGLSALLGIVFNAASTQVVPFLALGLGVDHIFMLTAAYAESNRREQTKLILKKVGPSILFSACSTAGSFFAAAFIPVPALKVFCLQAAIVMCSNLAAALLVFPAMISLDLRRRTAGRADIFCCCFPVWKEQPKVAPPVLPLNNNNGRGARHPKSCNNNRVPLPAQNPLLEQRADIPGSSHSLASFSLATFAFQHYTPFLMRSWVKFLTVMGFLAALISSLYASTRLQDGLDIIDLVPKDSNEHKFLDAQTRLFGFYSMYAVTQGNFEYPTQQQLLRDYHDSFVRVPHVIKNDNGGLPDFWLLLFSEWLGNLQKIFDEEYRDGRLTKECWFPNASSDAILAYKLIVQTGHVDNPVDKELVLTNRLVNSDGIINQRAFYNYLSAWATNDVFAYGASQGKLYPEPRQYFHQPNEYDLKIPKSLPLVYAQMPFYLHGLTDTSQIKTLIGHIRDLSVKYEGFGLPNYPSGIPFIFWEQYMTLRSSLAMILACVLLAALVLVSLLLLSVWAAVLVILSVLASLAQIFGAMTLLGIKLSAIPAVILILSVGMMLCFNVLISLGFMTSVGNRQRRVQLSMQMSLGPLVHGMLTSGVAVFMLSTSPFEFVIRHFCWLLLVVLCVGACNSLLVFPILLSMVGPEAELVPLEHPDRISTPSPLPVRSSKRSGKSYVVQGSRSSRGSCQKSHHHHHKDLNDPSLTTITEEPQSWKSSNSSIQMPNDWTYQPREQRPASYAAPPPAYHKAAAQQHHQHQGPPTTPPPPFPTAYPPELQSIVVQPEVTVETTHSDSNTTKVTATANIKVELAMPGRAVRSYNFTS
Assay: in vivo immunostaining of wing imaginal discs (punctuate staining in anterior cells); hh-N^HA under en-Gal4 in hh ts2/ts2 animals at the non-permissive temperature
From the text: Expression of Hh-Nu in P cells of the wing imaginal disc results in dpp-lacZ expression in the entire A compartment of the disc, and a consequent dramatic enlargement of the A compartment. Thus Hh-Nu appears to have a range of action at least five fold larger than that of wild-type Hh. However, since this and previous experiments have been performed in the presence of endogenous Hh, it could not be ruled out that the observed extension of Hh activity depends on, or is even mediated by, endogenous Hh-Np whose range might be expanded in the presence of Hh-Nu. To address this, we created a situation where Hh-Nu is the sole source of Hh in imaginal discs by expressing hh-N^HA in P cells under en-Ga14 in hh^{ts2/ts2} animals that were shifted to the non-permissive temperature during early larval stages. […] Thus Hh-Nu alone is able to associate with Ptc and signal in vivo. The cholesterol anchor of Hh appears to be required for the sequestration of Hh by Ptc, since untethered Hh is seemingly unrestricted in its range. We cannot currently rule out the possibility that Hh-Nu is also, at least partially, sequestered by Ptc but that extracellular Hh-Nu levels are abnormally high and saturate the capacity of Ptc.
hh-temperature sensitive animals were generated using the hh^ts2 allel (Ma et al., 1993) balanced over the TM6b[Tb]balancer. […]

B1: Hh-Nu (cholesterol-free N-terminal portion of Drosophila Hedgehog, product of the hh-N^HA transgene) (ligand, not shown: small tags and cut ends)
chain: not shown
modifications: no C-terminal cholesterol (cholesterol-free)
notes: Expressed in P cells of wing imaginal discs under en-Gal4 in hh ts2/ts2 animals; also called unmodified Hh-Nu; untethered Hh
- binding result: binds
